Experimental data as given in the supplement of paper PMC11811203.

B1: THAP1; numbered along this chain (parent)
chain: MVQSCSAYGCKNRYDKDKPVSFHKFPLTRPSLCKEWEAAVRRKNFKPTKYSSICSEHFTPDCFKRECNNKLLKENAVPTIFLCTEPHDKKEDLLEPQEQLPPPPLPPPVSQVDAAIGLLMPPLQTPVNLSVFCDHNYTVEDTMHQRKRIHQLEQQVEKLRKKLKTAQQRCRRQERQLEKLKEVVHFQKEKDDVSERGYVILPNDYFEIVEVPA

Variants of: B1
Assay: THAP1 transcriptional activity (GFP+/GFP- enrichment relative to wild-type constructs) (ratio to WT); higher = more THAP1 activity (PSMB5 reporter activation)
Conditions: with PSMB5 promoter-GFP reporter
Method: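 Deep mutational scan of human THAP1. Site-saturation single amino acid variant library (residues 2-213) was expressed by lentivirus at MOI ~0.3 in THAP1-knockout HEK-293T cells carrying an endogenous PSMB5 promoter-GFP knock-in reporter. Five days post-transduction, BFP+ cells were FACS-sorted into GFP dim and GFP bright populations and variants were counted by Illumina sequencing. Activity is the GFP-bright/GFP-dim read fold change, mean of 2 replicates, divided by the mean fold change of wild-type (synonymous) constructs in the same screen pool; WT = 1.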

Row | Variant | THAP1 transcriptional activity
1 | C10P | 0.114
2 | C10Y | 0.106
3 | L119M | 0.525
4 | Q3Y | 0.149
5 | Q3H | 1.01
6 | L180K | 0.367
7 | L180Q | 0.399
8 | L180P | 0.166
9 | F45H | 0.161
10 | A76D | 0.209
11 | A76C | 0.862
12 | A76G | 0.221
13 | A76T | 0.18
14 | M143D | 1.76
15 | M143V | 1.09
16 | Q176G | 0.189
17 | Q176P | 0.259
18 | Y137T | 0.136
19 | Y137M | 0.114
20 | Y137L | 0.167
21 | G117T | 0.51
22 | G117R | 0.476
23 | G117C | 0.534
24 | G117M | 0.138

Row | Variant | THAP1 transcriptional activity
25 | V127A | 0.82
26 | E153T | 0.774
27 | V199H | 0.609
28 | V199C | 0.947
29 | R13N | 0.126
30 | R13I | 0.116
31 | V20M | 0.155
32 | V20I | 1.71
33 | V20R | 0.261
34 | D192M | 1.27
35 | D192S | 0.615
36 | P126V | 0.434
37 | P126Y | 0.194
38 | K147A | 0.537
39 | H135T | 0.111
40 | H135Q | 0.151
41 | H135A | 0.145
42 | K181Q | 0.514
43 | K181P | 0.152
44 | Q97H | 0.853
45 | Q173S | 0.592
46 | C33L | 0.708
47 | E157V | 0.835
48 | D141A | 0.37

Row | Variant | THAP1 transcriptional activity
49 | D141I | 0.309
50 | D141E | 1.51
51 | R146S | 1
52 | R146Q | 0.849
53 | V156K | 0.343
54 | H57C | 0.196
55 | P86G | 0.464
56 | K158M | 0.607
57 | R42L | 0.104
58 | S51H | 0.145
59 | S51I | 0.124
60 | S51D | 0.0561
61 | S51V | 0.102
62 | S51R | 0.0935
63 | P202K | 0.636
64 | P19T | 0.681
65 | K190Y | 0.762
66 | H185F | 0.469
67 | H185P | 0.76
68 | H185T | 1.07
69 | H185N | 1.01
70 | R29A | 0.122
71 | R29S | 0.134
72 | E56A | 0.98

Row | Variant | THAP1 transcriptional activity
73 | E56N | 0.344
74 | P102M | 0.907
75 | P102D | 2
76 | L152D | 0.195
77 | L152Q | 0.191
78 | R175H | 0.492
79 | R148E | 0.167
80 | R148A | 0.487
81 | L163R | 0.163
82 | V139F | 0.996
83 | V139P | 0.163
84 | D17Y | 0.747
85 | D17E | 0.889
86 | D17L | 0.861
87 | Q167W | 0.235
88 | F58R | 0.046
89 | F58T | 0.0696
90 | K43D | 0.503
91 | K43R | 0.716
92 | A166C | 1.14
93 | N69M | 0.597
94 | T142V | 0.403
95 | T142A | 0.581
96 | T142I | 0.34

Row | Variant | THAP1 transcriptional activity
97 | T142S | 0.66
98 | P121K | 0.594
99 | P121E | 0.735
100 | P121V | 0.207
101 | L123D | 1.45
102 | L123Q | 0.814
103 | T28L | 0.612
104 | T28W | 0.188
105 | C133Q | 1.27
106 | C133A | 0.667
107 | E98F | 0.462
108 | E98R | 0.908
109 | P212M | 1.4
110 | K49E | 0.105
111 | K49N | 0.177
112 | K49P | 0.264
113 | K49C | 0.185
114 | E85W | 0.155
115 | E85M | 0.346
116 | S6V | 0.541
117 | S6H | 0.106
118 | S6K | 0.122
119 | H144K | 0.954
120 | H144V | 0.388

Row | Variant | THAP1 transcriptional activity
121 | I80A | 0.266
122 | E182Y | 0.58
123 | E182H | 0.73
124 | G197H | 1.76
125 | V112Q | 1.03
126 | V112P | 1.04
127 | L159H | 0.228
128 | L159C | 0.151
129 | L159Q | 0.261
130 | T125N | 0.786
131 | T125M | 0.329
132 | S21N | 0.152
133 | D134Y | 0.166
134 | D134M | 0.159
135 | K18E | 0.152
136 | K18S | 0.384
137 | K18D | 0.0802
138 | Y50H | 0.759
139 | Y50L | 0.135
140 | T48C | 0.128
141 | T48V | 0.12
142 | K11W | 0.0942
143 | K11L | 0.191
144 | K11T | 0.513

Row | Variant | THAP1 transcriptional activity
145 | V211N | 0.965
146 | Q151P | 0.303
147 | Q151T | 0.796
148 | Q151A | 0.791
149 | P60G | 0.443
150 | I208W | 0.755
151 | I208M | 1.25
152 | I208E | 1.41
153 | Y205K | 0.717
154 | P26R | 0.098
155 | P26F | 0.0724
156 | N44I | 0.118
157 | N44W | 0.123
158 | D191H | 0.987
159 | K90C | 1.03
160 | K90A | 1.95
161 | M120Y | 0.474
162 | M120A | 0.822
163 | W36T | 0.143
164 | E207R | 0.5
165 | T165H | 0.785
166 | T165K | 0.633
167 | T165I | 0.755
